Data on two molecules can be found in article PMC3925836 (Advanced healthcare materials, 2013).

The target of assay [1] is T1, GPRP-P40-I60-C.
T1 chain: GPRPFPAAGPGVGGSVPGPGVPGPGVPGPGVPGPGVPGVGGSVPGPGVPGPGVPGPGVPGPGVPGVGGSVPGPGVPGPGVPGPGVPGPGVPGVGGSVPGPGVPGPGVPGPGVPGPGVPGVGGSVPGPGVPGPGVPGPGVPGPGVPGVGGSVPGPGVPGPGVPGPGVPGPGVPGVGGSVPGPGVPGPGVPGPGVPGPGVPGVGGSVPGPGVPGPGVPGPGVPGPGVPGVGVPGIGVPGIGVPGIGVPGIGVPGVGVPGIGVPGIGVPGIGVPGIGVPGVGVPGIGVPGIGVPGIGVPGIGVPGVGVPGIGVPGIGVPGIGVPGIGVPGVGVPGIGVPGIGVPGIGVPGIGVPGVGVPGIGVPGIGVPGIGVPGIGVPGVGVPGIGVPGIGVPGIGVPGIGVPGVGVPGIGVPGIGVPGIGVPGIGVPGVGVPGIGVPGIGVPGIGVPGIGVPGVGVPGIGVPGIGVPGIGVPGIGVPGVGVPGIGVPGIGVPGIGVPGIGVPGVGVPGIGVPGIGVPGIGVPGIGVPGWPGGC
The assay is described as follows: ELISA. Background: In an ELISA, binding on a coated surface is turned into a signal by an enzyme label.

The target in assay [2] is T2, GPRP-A80-I60-C.
T2 chain: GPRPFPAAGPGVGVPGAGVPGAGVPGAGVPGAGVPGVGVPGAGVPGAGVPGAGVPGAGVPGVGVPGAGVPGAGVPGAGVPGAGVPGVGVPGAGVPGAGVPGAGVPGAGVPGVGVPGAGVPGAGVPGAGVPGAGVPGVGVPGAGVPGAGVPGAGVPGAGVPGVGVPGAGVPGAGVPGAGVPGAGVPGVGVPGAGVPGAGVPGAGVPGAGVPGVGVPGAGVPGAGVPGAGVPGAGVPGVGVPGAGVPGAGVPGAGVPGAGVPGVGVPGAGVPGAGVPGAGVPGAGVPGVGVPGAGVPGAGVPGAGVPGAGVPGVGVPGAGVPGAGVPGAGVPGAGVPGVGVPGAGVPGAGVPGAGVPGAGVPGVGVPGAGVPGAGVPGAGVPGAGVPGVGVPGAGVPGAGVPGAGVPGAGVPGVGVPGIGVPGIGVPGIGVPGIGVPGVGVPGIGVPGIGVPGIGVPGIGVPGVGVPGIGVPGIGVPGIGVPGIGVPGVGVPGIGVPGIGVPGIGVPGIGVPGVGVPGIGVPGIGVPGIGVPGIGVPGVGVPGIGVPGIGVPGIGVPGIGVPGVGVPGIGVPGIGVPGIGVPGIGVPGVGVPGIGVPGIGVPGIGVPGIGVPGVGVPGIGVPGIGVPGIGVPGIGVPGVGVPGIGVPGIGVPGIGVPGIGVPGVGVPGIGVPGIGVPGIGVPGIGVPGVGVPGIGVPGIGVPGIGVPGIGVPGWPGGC
In words: ELISA.

Assay [3] deals with T3, GPRP-A80-I60.
T3 chain: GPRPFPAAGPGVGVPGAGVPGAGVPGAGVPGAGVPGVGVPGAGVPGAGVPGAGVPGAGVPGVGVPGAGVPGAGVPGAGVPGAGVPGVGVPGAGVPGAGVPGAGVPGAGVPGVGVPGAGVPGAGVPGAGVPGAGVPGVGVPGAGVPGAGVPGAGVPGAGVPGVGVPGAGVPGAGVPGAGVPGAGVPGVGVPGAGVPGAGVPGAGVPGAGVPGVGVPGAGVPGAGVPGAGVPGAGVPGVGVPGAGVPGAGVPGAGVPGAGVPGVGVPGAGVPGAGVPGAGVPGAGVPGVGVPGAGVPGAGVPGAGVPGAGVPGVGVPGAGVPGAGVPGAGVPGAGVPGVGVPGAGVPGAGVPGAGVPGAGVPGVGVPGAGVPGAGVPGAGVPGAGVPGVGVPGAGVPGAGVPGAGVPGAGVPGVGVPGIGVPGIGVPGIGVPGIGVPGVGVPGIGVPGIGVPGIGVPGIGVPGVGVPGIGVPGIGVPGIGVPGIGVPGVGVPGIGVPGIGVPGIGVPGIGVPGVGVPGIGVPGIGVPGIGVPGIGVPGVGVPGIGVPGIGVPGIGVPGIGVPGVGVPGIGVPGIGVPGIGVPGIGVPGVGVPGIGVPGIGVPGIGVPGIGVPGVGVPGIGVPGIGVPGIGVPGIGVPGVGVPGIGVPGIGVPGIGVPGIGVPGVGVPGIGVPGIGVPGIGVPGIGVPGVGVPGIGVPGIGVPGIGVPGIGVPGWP
The assay is described as follows: plate-based fluorescence binding assay.

In assay [4] the target is T4, GPRP-P40-I60.
T4 chain: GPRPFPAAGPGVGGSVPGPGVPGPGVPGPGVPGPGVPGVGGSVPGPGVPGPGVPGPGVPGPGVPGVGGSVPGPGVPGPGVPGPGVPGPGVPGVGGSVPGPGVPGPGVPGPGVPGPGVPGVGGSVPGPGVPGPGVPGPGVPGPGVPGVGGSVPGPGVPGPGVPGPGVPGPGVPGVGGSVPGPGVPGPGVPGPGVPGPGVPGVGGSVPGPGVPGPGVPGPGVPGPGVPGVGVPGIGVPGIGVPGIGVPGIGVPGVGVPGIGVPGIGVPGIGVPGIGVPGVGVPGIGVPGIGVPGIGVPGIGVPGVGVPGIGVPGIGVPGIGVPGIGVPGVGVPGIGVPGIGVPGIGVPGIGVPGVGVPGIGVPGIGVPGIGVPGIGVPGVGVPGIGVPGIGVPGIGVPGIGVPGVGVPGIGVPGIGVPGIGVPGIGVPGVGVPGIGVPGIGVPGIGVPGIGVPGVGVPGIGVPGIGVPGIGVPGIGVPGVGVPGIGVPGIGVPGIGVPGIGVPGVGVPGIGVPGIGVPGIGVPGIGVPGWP
In words: plate-based fluorescence binding assay.

Substitutions are numbered along the chain they refer to.

B1: fibrinogen, P02671 36-866; P02675 45-491; P02679 27-453 (complex)
chain 1: ADSGEGDFLAEGGGVRGPRVVERHQSACKDSDWPFCSDEDWNYKCPSGCRMKGLIDEVNQDFTNRINKLKNSLFEYQKNNKDSHSLTTNIMEILRGDFSSANNRDNTYNRVSEDLRSRIEVLKRKVIEKVQHIQLLQKNVRAQLVDMKRLEVDIDIKIRSCRGSCSRALAREVDLKDYEDQQKQLEQVIAKDLLPSRDRQHLPLIKMKPVPDLVPGNFKSQLQKVPPEWKALTDMPQMRMELERPGGNEITRGGSTSYGTGSETESPRNPSSAGSWNSGSSGPGSTGNRNPGSSGTGGTATWKPGSSGPGSTGSWNSGSSGTGSTGNQNPGSPRPGSTGTWNPGSSERGSAGHWTSESSVSGSTGQWHSESGSFRPDSPGSGNARPNNPDWGTFEEVSGNVSPGTRREYHTEKLVTSKGDKELRTGKEKVTSGSTTTTRRSCSKTVTKTVIGPDGHKEVTKEVVTSEDGSDCPEAMDLGTLSGIGTLDGFRHRHPDEAAFFDTASTGKTFPGFFSPMLGEFVSETESRGSESGIFTNTKESSSHHPGIAEFPSRGKSSSYSKQFTSSTSYNRGDSTFESKSYKMADEAGSEADHEGTHSTKRGHAKSRPV
chain 2: QGVNDNEEGFFSARGHRPLDKKREEAPSLRPAPPPISGGGYRARPAKAAATQKKVERKAPDAGGCLHADPDLGVLCPTGCQLQEALLQQERPIRNSVDELNNNVEAVSQTSSSSFQYMYLLKDLWQKRQKQVKDNENVVNEYSSELEKHQLYIDETVNSNIPTNLRVLRSILENLRSKIQKLESDVSAQMEYCRTPCTVSCNIPVVSGKECEEIIRKGGETSEMYLIQPDSSVKPYRVYCDMNTENGGWTVIQNRQDGSVDFGRKWDPYKQGFGNVATNTDGKNYCGLPGEYWLGNDKISQLTRMGPTELLIEMEDWKGDKVKAHYGGFTVQNEANKYQISVNKYRGTAGNALMDGASQLMGENRTMTIHNGMFFSTYDRDNDGWLTSDPRKQCSKEDGGGWWYNRCHAANPNGRYYWGGQYTWDMAKHGTDDGVVWMNWKGSWYSMRKMSMKIRPFFPQQ
chain 3: YVATRDNCCILDERFGSYCPTTCGIADFLSTYQTKVDKDLQSLEDILHQVENKTSEVKQLIKAIQLTYNPDESSKPNMIDAATLKSRKMLEEIMKYEASILTHDSSIRYLQEIYNSNNQKIVNLKEKVAQLEAQCQEPCKDTVQIHDITGKDCQDIANKGAKQSGLYFIKPLKANQQFLVYCEIDGSGNGWTVFQKRLDGSVDFKKNWIQYKEGFGHLSPTGTTEFWLGNEKIHLISTQSAIPYALRVELEDWNGRTSTADYAMFKVGPEADKYRLTYAYFAGGDAGDAFDGFDFGDDPSDKFFTSHNGMQFSTWDNDNDKFEGNCAEQDGSGWWMNKCHAGHLNGVYYQGGTYSKASTPNGYDNGIIWATWKTRWYSMKKTTMKIIPFNRLTIGEGQQHHLGGAKQAGDV
modifications: not checked
For B1, the % normalized signal (GPRPFPAC-coated wells = 100 %), saturated wells in assay [1] and in assay [2] was above 100% each time.

B2: GPSP-P40-I60-C labelled with Alexa Fluor 488 or Alexa Fluor 546 (designed binder)
chain: T1 chain with R3S
modifications: Alexa Fluor 488 or Alexa Fluor 546 on the C-terminal cysteine (sulfhydryl-maleimide)
For B2, the binding result in assay [3] and in assay [4] was “binds” in each case.
